From publication PMC6071955 come the findings set out here.

As usually defined, the Kd is a measure of binding affinity in units of concentration. Read a high Kd as a looser complex. As usually defined, the stoichiometry N is a count of units in the complex or per binding partner.

Several values for one entry are separate records, joined by “and”; a condition that tells them apart may be missing. Equal values may be shown once. Read-outs that look alike come from different tables or passages of the source.

In assay [1] the target is FusC(E83A) mutant, catalytically inactive (Pectobacterium (species and strain of the cloned gene not stated)). As to the kind of experiment: ITC; ferredoxin (200 uM) titrated in 10 ul steps, 27 titrations, into the chamber with FusC(E83A) (20 uM); 20 mM HEPES, 50 mM NaCl pH 7.5; MicroCal VP-ITC; 299.15 K (Table 2); parameters from the average of the two best of three reactions. In general terms: In ITC the heat of successive injections is recorded.

For assay [2] the target is unchanged. The assay is described as above. This is another data set of the same source.

Regarding “ferredoxin from the plant Arabidopsis thaliana (from UniProt P16972 53-145) (natural protein)”, in assay [1], the Ka is 452000 M⁻¹ and 805000 M⁻¹ and 629000 M⁻¹; the Kd is 1.24 µM and 1.73 µM and 2.21 µM; the dH is -5.2 kcal/mol and -4.91 kcal/mol and -5.06 kcal/mol; the stoichiometry N was 1.12 and 1.06 and 1.09. Besides, the Kd in assay [2] was 1.9 µM.
